The source of these data is paper PMC5007201.

A word on the stoichiometry N: it is the number of molecules, sites or subunits per partner or assembly.

For the test, the target named is human dynein heavy chain with an N-terminal GFP, within the GFP-dynein complex (human) (UniProt Q14204). Description: single-molecule photobleaching step counting.

Turning to “human dynein heavy chain with an N-terminal GFP, within the GFP-dynein complex, Q14204 1-4646”, the stoichiometry N was 2.
